This data set has as its target T1, HPV16 E2Ct (E2 DNA binding domain) (Human papillomavirus type 16, UniProt P0DKA0 SEQ:1-87).
T1 chain: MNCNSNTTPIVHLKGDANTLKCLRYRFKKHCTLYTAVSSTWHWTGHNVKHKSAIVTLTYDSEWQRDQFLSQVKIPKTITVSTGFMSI
The experiment in a line: EMSA; 10, 50, 250 nM protein; binds tightly; 20 mM HEPES pH 7.9, 25 mM KCl, poly[d(I-C)], 20 C; refolded E2Ct also binds (FIG. 7a). As to conditions: chain copies: 2 (stated, dimer); label: 32P 5' end. On the technique in general: A gel shift assay detects complexes by their altered migration in electrophoresis.

These results are taken from patent US20030130184, “Methods of inducing cell death” (The University of Bristol, published 2003).

B1: HPV16 E2 site 1, E2(1) (dsDNA)
DNA 1: TTGAACCGAAACCGGTTAGT
DNA 2: ACTAACCGGTTTCGGTTCAA
B1: the binding result is given as “binds”.
